Measured values taken from patent publication US20190309072A1 (CYTOMX THERAPEUTICS, published 2019).

T1: human ITGa3 on human-derived cell lines (human, UniProt P26006 33-1051)
T1 construct: whole, on cells; also called ITGa3 on H292 cells
T1 sequence (looked up): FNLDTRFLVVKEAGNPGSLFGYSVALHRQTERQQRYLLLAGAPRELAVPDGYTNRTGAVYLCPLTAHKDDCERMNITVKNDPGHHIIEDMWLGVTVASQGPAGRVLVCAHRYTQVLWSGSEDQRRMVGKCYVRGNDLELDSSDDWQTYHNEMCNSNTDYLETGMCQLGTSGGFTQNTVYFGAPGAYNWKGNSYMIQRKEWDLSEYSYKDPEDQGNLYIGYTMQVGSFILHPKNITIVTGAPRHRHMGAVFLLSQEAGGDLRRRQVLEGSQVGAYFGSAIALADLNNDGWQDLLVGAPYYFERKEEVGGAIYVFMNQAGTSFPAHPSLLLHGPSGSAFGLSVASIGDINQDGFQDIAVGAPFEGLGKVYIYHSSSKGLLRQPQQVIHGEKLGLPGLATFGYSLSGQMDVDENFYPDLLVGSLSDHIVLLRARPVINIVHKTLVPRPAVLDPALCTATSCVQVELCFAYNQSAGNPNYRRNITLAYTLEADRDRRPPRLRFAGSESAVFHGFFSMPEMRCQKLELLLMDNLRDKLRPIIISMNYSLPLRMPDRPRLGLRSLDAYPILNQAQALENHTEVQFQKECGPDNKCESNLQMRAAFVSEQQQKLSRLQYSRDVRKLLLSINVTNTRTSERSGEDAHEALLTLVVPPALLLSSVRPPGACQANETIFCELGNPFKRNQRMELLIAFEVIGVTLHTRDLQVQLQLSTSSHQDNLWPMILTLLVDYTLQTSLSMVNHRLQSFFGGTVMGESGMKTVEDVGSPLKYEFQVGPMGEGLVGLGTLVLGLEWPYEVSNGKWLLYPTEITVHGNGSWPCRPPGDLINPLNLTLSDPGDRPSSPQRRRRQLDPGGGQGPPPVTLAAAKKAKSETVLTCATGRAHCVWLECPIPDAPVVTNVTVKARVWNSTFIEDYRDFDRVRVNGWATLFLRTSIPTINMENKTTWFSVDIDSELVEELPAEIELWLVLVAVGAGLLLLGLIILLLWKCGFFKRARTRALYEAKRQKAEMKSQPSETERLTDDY

T2: mouse ITGa3 on mouse-derived Renca renal carcinoma cells (mouse, UniProt Q62470 33-1053)
T2 construct: whole, on cells
T2 sequence (looked up): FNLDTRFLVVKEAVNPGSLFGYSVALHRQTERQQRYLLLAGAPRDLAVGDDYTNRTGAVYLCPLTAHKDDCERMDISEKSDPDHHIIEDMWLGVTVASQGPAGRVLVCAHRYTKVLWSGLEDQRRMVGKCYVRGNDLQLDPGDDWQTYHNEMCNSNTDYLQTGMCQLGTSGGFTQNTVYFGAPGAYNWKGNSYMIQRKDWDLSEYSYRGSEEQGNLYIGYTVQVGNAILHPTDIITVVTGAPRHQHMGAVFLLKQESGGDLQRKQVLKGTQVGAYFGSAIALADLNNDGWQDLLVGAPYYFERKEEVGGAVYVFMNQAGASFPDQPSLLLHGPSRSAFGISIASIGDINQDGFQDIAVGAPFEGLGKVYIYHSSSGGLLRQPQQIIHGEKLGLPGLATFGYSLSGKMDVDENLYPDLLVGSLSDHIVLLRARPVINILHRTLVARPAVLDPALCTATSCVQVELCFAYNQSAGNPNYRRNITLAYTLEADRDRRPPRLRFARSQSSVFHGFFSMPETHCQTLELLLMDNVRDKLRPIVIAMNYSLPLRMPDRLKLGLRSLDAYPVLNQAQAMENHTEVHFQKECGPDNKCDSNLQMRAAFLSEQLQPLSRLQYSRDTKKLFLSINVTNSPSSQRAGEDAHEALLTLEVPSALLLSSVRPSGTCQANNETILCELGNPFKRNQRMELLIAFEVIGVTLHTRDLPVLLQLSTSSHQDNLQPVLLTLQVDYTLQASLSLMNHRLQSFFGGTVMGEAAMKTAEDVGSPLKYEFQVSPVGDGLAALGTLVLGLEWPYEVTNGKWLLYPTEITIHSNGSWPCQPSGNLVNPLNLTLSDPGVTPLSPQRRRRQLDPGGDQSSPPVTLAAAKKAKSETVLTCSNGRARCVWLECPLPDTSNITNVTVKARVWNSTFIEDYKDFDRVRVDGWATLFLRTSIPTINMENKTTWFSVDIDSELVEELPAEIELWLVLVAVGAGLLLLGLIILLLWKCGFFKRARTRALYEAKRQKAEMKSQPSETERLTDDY


What was measured:
[1] = molecular target: T1, human ITGa3 on human-derived cell lines; test: FACS on FaDu cells; apparent Kd from binding curve
Protocol: (§1) In this study, the binding of the antibodies of the present disclosure to the indicated cell lines were performed using a standard FACS labelling method.

[2] = molecular target: T1, human ITGa3 on human-derived cell lines; test: FACS on HT29 cells; apparent Kd from binding curve
Protocol: as §1

[3] = molecular target: T1, human ITGa3 on human-derived cell lines; test: FACS on BxPC3 cells; apparent Kd from binding curve
Protocol: as §1

[4] = molecular target: T1, human ITGa3 on human-derived cell lines; test: FACS on MDA MB231 cells; apparent Kd from binding curve
Protocol: as §1

[5] = molecular target: T2, mouse ITGa3 on mouse-derived Renca …; test: FACS on Renca cells; goat anti-human IgG Alexa Fluor 647 secondary
[6] = molecular target: T1, human ITGa3 on human-derived cell lines; test: FACS on MDA MB 231 cells (FIG. 17B); apparent Kd from binding curve
Protocol: In this study, the binding of the antibodies of the present disclosure to the indicated cell lines were performed using a standard FACS labelling method. Briefly, in FIG. 17A cells were labeled with the indicated antibodies of the present disclosure: anti-human ITGa3 antibody drug conjugate (anti-ITGa3 huVM2 Hc2/Lc1-spdb-DM4, “ITGa-DM4”) or an anti-human ITGa3 activatable antibody drug conjugate (anti-ITGA3 Hc2-570-2001-spdb-DM4, “ITGA3-570-2001-DM4”), where the anti-ITGa3 AADC was used with and without activation by a protease that recognized the substrate sequence. In FIG. 17B cells were labeled with the indicated antibodies of the present disclosure: anti-human ITGa3 antibody (anti-ITGa3 huVM2 Hc2T62G/Lc1 antibody, “ITGa3 Ab”) or an anti-human ITGa3 activatable antibody (anti-ITGA3 Hc2T62G-570-2001, “ITGA3-570-2001; anti-ITGA3 Hc2T62G-2331-3001, “ITGA3-2331-3001”) and their corresponding AADCs conjugated to vc-MMAD at the indicated concentrations and subsequently detected with an Alexa Fluor 647 labeled goat anti-human IgG secondary antibody.

[7] = molecular target: T1, human ITGa3 on human-derived cell lines; test: FACS on H292 cells; goat anti-human IgG Alexa Fluor 647 secondary; used for comparison
Protocol: […], the binding of activatable anti-ITGa3 antibodies of the present disclosure comprising the VH of SEQ ID NO: 7, a VL selected from the VL of SEQ ID NO: 11 and the VL of SEQ ID NO: 12, with a masking moiety selected from the 570 masking moiety (SEQ ID NO: 22) and the 574 masking moiety (SEQ ID NO: 26), and the CM1 substrate comprising the sequence […] (SEQ ID NO: 232) to the H292 cell line was evaluated using a cell-binding FACS assay. The VM2 chimera (VH of SEQ ID NO: 1 and VL of SEQ ID NO: 2) was used for comparison. Using a standard labeling protocol for FACS, cells were labeled with anti-ITGa3 antibody or anti-ITGa3 activatable antibody of the present disclosure at the indicated concentrations, and the bound antibody was detected with a goat anti-human IgG Alexa Fluor 647 secondary antibody.

[8] = molecular target: T1, human ITGa3 on human-derived cell lines; test: FACS on FaDu cells; shift of the ActAb Kd against the ITGa3 Ab Kd
Protocol: as §1

[9] = molecular target: T1, human ITGa3 on human-derived cell lines; test: FACS on HT29 cells; shift of the ActAb Kd against the ITGa3 Ab Kd
Protocol: as §1

[10] = molecular target: T1, human ITGa3 on human-derived cell lines; test: FACS on BxPC3 cells; shift of the ActAb Kd against the ITGa3 Ab Kd
Protocol: as §1

[11] = molecular target: T1, human ITGa3 on human-derived cell lines; test: FACS on MDA MB231 cells; shift of the ActAb Kd against the ITGa3 Ab Kd
Protocol: as §1

Row | Binder | Kd [1] | Kd [2] | Kd [3] | Kd [4] | Kd [6] | also measured
1 | anti-ITGa3 huVM2 Hc2T62G/Lc1 antibody (antibody, human IgG1, kappa, also called ITGa3 Ab; ITGA3-Ab) heavy: not shown light: DIQMTQSPSSLSASVGDRVTITCSASSSISSNYLHWYQQKPGKVPKLLIYRTSNLASGVPSRFSGSGSGTDYTLTISSLQPEDVATYYCQQGSSIPRFTSGGGTKVEIKRTVAAPSVFIFPPSDEQLKSGTASVVCLLNNFYPREAKVQWKVDNALQSGNSQESVTEQDSKDSTYSLSSTLTLSKADYEKHKVYACEVTHQGLSSPVTKSFNRGEC | 0.32 nM | 0.24 nM | 0.77 nM | 0.91 nM | 0.906 nM | binding result [5]: no binding
2 | anti-ITGa3 huVM2 Hc2T62G/Lc1 antibody conjugated to vc-MMAD (antibody, human IgG1, kappa, vc-MMAD conjugated to the antibody; chain and residues of attachment not stated, Antibody drug conjugate of m29; also called ITGa3 Ab-MMAD; huVM2 Hc2T62G-MMAD ADC) heavy: not shown light: DIQMTQSPSSLSASVGDRVTITCSASSSISSNYLHWYQQKPGKVPKLLIYRTSNLASGVPSRFSGSGSGTDYTLTISSLQPEDVATYYCQQGSSIPRFTSGGGTKVEIKRTVAAPSVFIFPPSDEQLKSGTASVVCLLNNFYPREAKVQWKVDNALQSGNSQESVTEQDSKDSTYSLSSTLTLSKADYEKHKVYACEVTHQGLSSPVTKSFNRGEC |  |  |  |  | 1.08 nM | 
3 | VM2 chimera (antibody, V domains shown, Chimera of the mouse VM2 variable domains; also called VM2 chimera anti-ITGa3 antibody) VH: EVQLQESGAELVKPGTSVRLSCKASGYTFTEYIIHWVKQRSGQGLEWIGWFYPESGSVKYNETFKGRATLTADKSSSTVYMELSRLTSEDSAVYFCARHEERDYYGYYAMDYWGQGTSVTVSS VL: DIVMTQTPTTLAASPGEKIIITCSASSSISSNYLHWYQQKPGFSPKLLIYRTSNLASGVPARFSGSGSGTSYSLTIGTMEAEDVATYYCQQGSSIPRFTSGSGTKLEIK |  |  |  |  |  | binding result [7]: binds
4 | anti-ITGA3 Hc2T62G-570-2001 (antibody, also called ITGa3-ActAb; ITGa3 ActAb) heavy: not shown light: QGQSGQGECKTRQDFEMHDCVYGGGSSGGSISSGLLSGRSDNHGGGSDIQMTQSPSSLSASVGDRVTITCSASSSISSNYLHWYQQKPGKVPKLLIYRTSNLASGVPSRFSGSGSGTDYTLTISSLQPEDVATYYCQQGSSIPRFTSGGGTKVEIKRTVAAPSVFIFPPSDEQLKSGTASVVCLLNNFYPREAKVQWKVDNALQSGNSQESVTEQDSKDSTYSLSSTLTLSKADYEKHKVYACEVTHQGLSSPVTKSFNRGEC | 4.58 nM | 6.03 nM | 7.39 nM | 7.42 nM | 18 nM | Apparent Masking Efficiency [8]: 14 fold; Apparent Masking Efficiency [9]: 25 fold; Apparent Masking Efficiency [10]: 10 fold; Apparent Masking Efficiency [11]: 8 fold
5 | anti-ITGA3 Hc2T62G-570-2001 conjugated to vc-MMAD (antibody, human IgG1, kappa, vc-MMAD conjugated to the antibody; chain and residues of attachment not stated, also called ITGa3 570-2001-MMAD; ITGa3-570-2001-MMAD) heavy: not shown light: QGQSGQGECKTRQDFEMHDCVYGGGSSGGSISSGLLSGRSDNHGGGSDIQMTQSPSSLSASVGDRVTITCSASSSISSNYLHWYQQKPGKVPKLLIYRTSNLASGVPSRFSGSGSGTDYTLTISSLQPEDVATYYCQQGSSIPRFTSGGGTKVEIKRTVAAPSVFIFPPSDEQLKSGTASVVCLLNNFYPREAKVQWKVDNALQSGNSQESVTEQDSKDSTYSLSSTLTLSKADYEKHKVYACEVTHQGLSSPVTKSFNRGEC |  |  |  |  | 17.5 nM | 
